In general, kcat refers to the number of substrate molecules converted per active site and unit of time at saturation.

This is an account of results in patent US20040052799A1, “Nucleic acid and amino acid sequences relating to Helicobacter pylori for diagnostics and therapeutics” (Astra Aktiebolag, priority 1996, published 2004).

Data set [1] deals with T1, H. pylori glutamate racemase (murI gene product) (Helicobacter pylori, UniProt Q9ZLT0).
T1 construct: made in house; host or cells: E. coli BL21(DE3) carrying pET-23-murI and pACYC-groE (GroES/GroEL co-expressed)
T1 sequence (Q9ZLT0 1-255): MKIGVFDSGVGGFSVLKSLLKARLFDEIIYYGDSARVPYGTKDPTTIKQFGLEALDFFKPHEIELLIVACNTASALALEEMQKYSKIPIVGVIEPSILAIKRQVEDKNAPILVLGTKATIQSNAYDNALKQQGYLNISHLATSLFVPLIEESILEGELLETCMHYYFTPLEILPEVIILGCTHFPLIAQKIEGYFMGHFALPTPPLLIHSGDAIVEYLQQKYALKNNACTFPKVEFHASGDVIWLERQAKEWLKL
Kind of data set: Glutamate racemase activity, conversion of D-glutamate to L-glutamate (two enzyme and single enzyme coupled assays). Conditions: purified recombinant enzyme. The class given is biochemical. As for the experimental part:
The activity of glutamate racemase, interconversion of the enantiomers of glutamic acid, was measured using D-glutamic acid as substrate. The method of Gallo and Knowles (Gallo, K. A. and Knowles, J. R., 1993, Biochmistry 32, 3981-3990) that was used to measure the glutamate racemase activity of Lactobacillus fermenti was adapted for the measurement of glutamate racemase activity of the H. pylori murI gene product isolated as a recombinant protein from E. coli. […] Initial rates were determined by following the increase in absorbance at 500 nm in a reaction volume of 200 μl containing 50 mM Tris-HCl, pH 7.8, 4% v/v glycerol, 10 mM NAD, 2 mM INT, 60 Units/ml L-glutamate dehydrogenase, 5 Units/ml diaphorase, and varying concentrations of either substrate (from 0.063 mM to 250 mM D-glutamic acid) or purified enzyme (from 1 μg to 50 μg). After a preincubation of all reagents except either the substrate (D-glutamic acid) or the enzyme (murI gene product) for a period of 5 minutes, reactions were initiated by adding the missing ingredient (i.e., the enzyme or the subtrate, as required), and the increase in optical density at 500 nm was measured in a Microplate Spectophotometer System (Molecular Devices, Spectra MAX 250). Measurements were followed for 20 minutes, and initial velocities were derived by calculating the maximum slope for the absorbance increases. […]

A further data set concerns the target H. pylori Asd (Helicobacter pylori, UniProt Q9ZK28). The data set is described as follows: Asd assay, reverse reaction, NADPH formation. The method, then:
The enzymatic activity of purified His-tagged H. pylori Asd (SEQ ID NO: 6545) was characterized by assaying the reverse reaction of phosphorylation of L-aspartate-β-semialdehyde (ASA) to L-p-aspartyl phosphate, with concomitant reduction of NADP^+ to NADPH. The formation of NADPH was detected by its absorbance, 340 nm, or by its fluorescence, excitation =340 nm, emission 455 nm.
ASA in 4 N HCl was prepared daily for use in Asd assays by partial neutralization with addition of 1.0 equivalent of […], with a resulting pH=1-2. The amount of ASA was determined enzymatically by complete reaction in the presence of excess NADP^+and phosphate. […] Assays were performed in the following buffer: 200 mM HEPES, 0.3 mM NADP^+, 30 mM NaH2PO4, 1.0 mM DTT, pH 7.5 or pH 8.0. ASA was used in the assay at concentrations of 5-165 μM by diluting the partially-neutralized ASA stock into the assay 10-200 fold, leading to a decrease in pH of 0.1 units or less. Reaction was initiated with the addition of enzyme to a final concentration of 3.5-70 nM.

Data set [2] addresses T2, H. pylori peptidyl-propyl cis-trans isomerase (PPIase) (Helicobacter pylori, UniProt Q9ZJH5).
T2 construct: His-Tag (N); made in house; host or cells: E. coli BL21(DE3)
T2 sequence (Q9ZJH5 whole entry, looked up): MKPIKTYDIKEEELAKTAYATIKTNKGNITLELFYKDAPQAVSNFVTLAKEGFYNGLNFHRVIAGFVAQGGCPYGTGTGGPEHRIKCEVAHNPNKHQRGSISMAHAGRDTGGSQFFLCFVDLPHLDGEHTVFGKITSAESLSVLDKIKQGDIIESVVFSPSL
The data set is described as follows: PPIase enzymatic assay, α-chymotrypsin coupled, succinyl-Ala-Ala-Pro-Phe-p-nitroanilide. In kind it is biochemical. An excerpt:
The assay is essentially as described by Fisher (Fischer, G., et. al. (1984) Biomed. Biochim. Acta 43:1101-1111). The assay measures the cis-trans isomerization of the Ala-Pro bond in the test peptide N-succinyl-Ala-Ala-Pro-Phe-p-nitroanilide (Sigma # S-7388, lot # 84H5805). The assay is coupled with α-chymotrypsin, where the ability of the protease to cleave the test peptide occurs only when the Ala-Pro bond is in trans. The conversion of the test peptide to the trans isomer in the assay is followed at 390 nm on a Beckman Model DU-650 spectophotometer. The data are collected every second with an average scanning of time of 0.5 second. Assays are carried out in 35 mM Hepes, pH 8.0, in a final volume of 400 ul, with 10 μM α-chymotrypsin (type 1-5 from bovine Pancreas, Sigma # C-7762, lot 23H7020) and 10 nM PPIase. To initiate the reaction, 10 μl of the substrate (2 mM N-Succinyl-Ala-Ala-Pro-Phe-p-nitroanilide in DMSO) is added to 390 μl of reaction mixture at room temperature.
The PPIase activity was assayed using the chromogenic tetrapeptide substrate succinyl-Ala-Ala-Pro-Phe-p-nitroanilide. An initial velocity of 4.9 μmole/min/mg protein was measured with the purified enzyme (FIG. 5). This corresponds to a kcat of 1.6 sec^−1 which is similar to the one obtained for the E. coli PPIase (Liu, J. and Walsh, C. T. (1990) Proc. Natl. Acad. Sci. USA 87:4028-4032) and the one from porcine kidney (Fischer, G. (1989) Nature 337:476-478).
The recombinant protein has a high catalytic efficiency of 2.06×10^9 M^−1 s^−1 when the assay is measured at 25° C. These values are one to two orders of magnitude higher than that observed for other characterized PPIases. However, in those studies, the ppiase assay was conducted at 10° C., which may account for the discrepency.

B1: H. pylori glutamate racemase: purified recombinant H. pylori glutamate racemase (SEQ ID NO: 7635) (protein, listed as Helicobacter pylori)
chain: MKIGVFDSGVGGFSVLKSLLKARLFDEIIYYGDSARVPYGTKDPTTIKQFGLEALDFFKPHEIELLIVACNTASALALEEMQKYSKIPIVGVIEPSILAIKRQVEDKNAPILVLGTKATIQSNAYDNALKQQGYLNISHLATSLFVPLIEESILEGELLETCMHYYFTPLEILPEVIILGCTHFPLIAQKIEGYFMGHFALPTPPLLIHSGDAIVEYLQQKYALKNNACTFPKVEFHASGDVIWLERQAKEWLKL
modifications: misc_feature (B) LOCATION 1...255; hypothetical: YES
With B1, the kcat in data set [1] was 0.143 s⁻¹. Besides, in data set [1] (D-glutamate substrate), the Vmax is listed as around 300 nmoles/min/mg protein.

B2: H. pylori Asd: purified His-tagged H. pylori Asd (SEQ ID NO: 6545) (protein, listed as Helicobacter pylori)
chain: MKTYNVAIVGASGAVGQELIKGLENSFFPIKKFVPLASARSAGKKIRAFNKDYEILETTHEVFEKEEIDIAFFSAGGSVSEEFAISASKTALVIDNTSFFRLNKDVPLVVPEINAQEIFNAPLNIIANPNCSTIQMTQILNPLHLHFKIKSVIVSTYQAVSGAGNKGIESLKNELKTALEHLEKDPAIDLNQVLQAGAFAYPIAFNAIAHIDTFKENGYTKEELKMVHETHKIMGVDFPISATCVRVPVLRSHSESLSIAFEKEFDLKEVYEVLKNAPSVVVCDDPSHNLYPTPLKASHTDSVFIGRLRKDLFDKKTLHGFCVADQLRVGAATNALKIALHYIKNA
modifications: His tag; misc_feature (B) LOCATION 1...346; hypothetical: YES
On to B2, for which the “decrease of kcat relative to the E. coli enzyme” value with H. pylori Asd is given as “about 5 fold”. In addition, the “effect of ionic strength on activity” value with H. pylori Asd (ionic strength as high as 0.7 M) is “unaffected”. Further, the kcat with H. pylori Asd (pH 8.0) amounted to 5.4 s⁻¹.

B3: H. pylori PPIase: recombinant PPI from H. pylori expressed in E. coli using pET-28b (protein)
chain: FIAIIEHLNDKSLSQRFMMKPIKTYDIKEEELAKTAYATIKTNKGNITLELFYKDAPQAVSNFVTLAKEGFYNGLNFHRVIAGFVAQGGCPYGTGTGGPEHRIKCEVAHNPNKHQRGSISMAHAGRDTGGSQFFLCFVDLPHLDGEHTVFGKITSAESLSVLDKIKQGDIIESVVFSPSL
modifications: left off: small tags and cut ends
notes: recombinant PPI from H. pylori expressed in E. coli using pET-28b
In turn, B3 gave a catalytic efficiency in data set [2] (assay measured at 25° C.) of 2.06e+09 M⁻¹ s⁻¹. Moreover, the kcat in data set [2] (purified recombinant enzyme) came to 1.6 s⁻¹. Also, the initial velocity in data set [2] (purified recombinant enzyme, substrate succinyl-Ala-Ala-Pro-Phe-p-nitroanilide) is on record as 4.9 μmole/min/mg protein.
